T1: human IL-12 (human, UniProt P29460 23-328; P29459 23-219)
T1 construct: Recombinant (Peprotech); FLAG-tagged IL-12 in the flow cytometry assays, biotinylated in the IL-12Rβ2 assay; also called hIL-12
T1 sequence 1: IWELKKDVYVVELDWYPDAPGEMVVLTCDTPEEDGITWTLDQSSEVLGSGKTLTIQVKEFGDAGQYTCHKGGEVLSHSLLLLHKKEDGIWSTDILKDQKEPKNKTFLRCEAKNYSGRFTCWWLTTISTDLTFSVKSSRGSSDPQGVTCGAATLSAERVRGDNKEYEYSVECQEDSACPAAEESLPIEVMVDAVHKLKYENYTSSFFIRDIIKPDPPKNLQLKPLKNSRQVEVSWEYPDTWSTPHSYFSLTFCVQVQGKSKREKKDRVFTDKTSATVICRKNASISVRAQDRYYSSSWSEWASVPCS
T1 sequence 2: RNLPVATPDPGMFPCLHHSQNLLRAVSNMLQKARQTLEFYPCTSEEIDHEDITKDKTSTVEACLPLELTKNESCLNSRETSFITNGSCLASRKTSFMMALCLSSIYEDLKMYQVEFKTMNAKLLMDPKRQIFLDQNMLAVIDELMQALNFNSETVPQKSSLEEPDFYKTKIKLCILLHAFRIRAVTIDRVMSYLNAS

T2: human IL-23 (human, UniProt P29460 23-328; Q9NPF7 20-189)
T2 construct: Recombinant (Ebioscience); HIS-tagged in flow cytometry, biotinylated in some assays; also called hIL-23; rhIL-23
T2 sequence 1: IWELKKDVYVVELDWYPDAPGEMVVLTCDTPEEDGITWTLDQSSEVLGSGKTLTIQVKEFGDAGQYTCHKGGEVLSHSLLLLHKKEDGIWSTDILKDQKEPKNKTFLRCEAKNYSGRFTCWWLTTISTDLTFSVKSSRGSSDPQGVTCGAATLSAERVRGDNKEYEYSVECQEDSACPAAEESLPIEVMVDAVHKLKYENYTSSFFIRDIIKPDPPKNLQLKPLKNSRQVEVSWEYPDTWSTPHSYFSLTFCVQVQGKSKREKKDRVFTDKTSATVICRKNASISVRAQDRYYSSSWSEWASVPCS
T2 sequence 2: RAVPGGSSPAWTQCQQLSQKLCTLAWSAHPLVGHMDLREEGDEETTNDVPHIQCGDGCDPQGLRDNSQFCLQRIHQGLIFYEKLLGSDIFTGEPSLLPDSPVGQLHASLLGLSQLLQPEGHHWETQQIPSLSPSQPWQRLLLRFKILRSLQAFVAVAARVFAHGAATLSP


How the values were obtained:
human IL-12 = target: T1, human IL-12; test: ELISA, coated IL-12
Summary of the method: (§1)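 Maxisorp plates were coated overnight at 4° C with cytokine at 1 μg/mL in carbonate buffer pH 9.6, then blocked for 1 hour at 25° C with 1% BSA in PBS. Antibody titrations were allowed to bind for 1 hour at 25° C and detected with goat anti-human IgG or anti-murine immunoglobulin HRP (1:2000, 1 hour), followed by TMB development stopped with 1M HCl. Binding is reported as absorbance. Readings were taken at 450 nm against a 620 nm reference.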

human IL-23 = target: T2, human IL-23; test: ELISA, coated IL-23
Summary of the method: as §1

binding result (human IL-12) | binding result (human IL-23) | Binder
binds | binds | Antibody 108 (antibody, human IgG1, kappa, V domains shown) VH: EVQLVQSGAEVKKPGATVKISCKASGYTISDYYLHWVRQAPEKGLEWMGWIDPENGDTEYAPKFQGRVTITADTSTDTGYLELSSLRSEDTAVYYCAANKELRYFDVWGQGTLVTVSS VL: DIQMTQSPSSVSASVGDRVTITCRASQSISINLHWYQQKPGKAPKLLIYFASQSISGVPSRFSGSGSGTDFSLTINSLQPEDFARYYCQQSNSFPLTFGGGTKVEIKR
binds | binds | Antibody 109 (antibody, human IgG1, kappa, V domains shown) VH: EVQLVQSGAEVKKPGATVKISCKASGYTFKDYYLHWVRQAPEKGLEWMGWIDPENGDTEYAPKFQGRVTITADTSTDTGYLELSSLRSEDTAVYYCAANKELRYFDVWGQGTLVTVSS VL: DIQMTQSPSSVSASVGDRVTITCRASQSISINLHWYQQKPGKAPKLLIYFASQSISGVPSRFSGSGSGTDFSLTINSLQPEDFARYYCQQSNSFPLTFGGGTKVEIKR
binds | binds | Antibody 116 (antibody, human IgG1, kappa, V domains shown) VH: EVQLVQSGAEVKKPGATVKISCKASGYTFSDYYLHWVRQAPEKGLEWMGWIDPENGDTEYAPKFQGRVTITADTSSDTGYLELSSLRSEDTAVYYCAANKELRYFDVWGQGTLVTVSS VL: DIQMTQSPSSVSASVGDRVTITCRASQSISINLHWYQQKPGKAPKLLIYFASQSISGVPSRFSGSGSGTDFSLTINSLQPEDFARYYCQQSNSFPLTFGGGTKVEIKR
binds | binds | Antibody 110 (antibody, human IgG1, kappa, V domains shown) VH: EVQLVQSGAEVKKPGATVKISCKASGYTFSDYYLHWVKQAPEKGLEWMGWIDPENGDTEYAPKFQGRVTITADTSTDTGYLELSSLRSEDTAVYYCAANKELRYFDVWGQGTLVTVSS VL: DIQMTQSPSSVSASVGDRVTITCRASQSISINLHWYQQKPGKAPKLLIYFASQSISGVPSRFSGSGSGTDFSLTINSLQPEDFARYYCQQSNSFPLTFGGGTKVEIKR
binds | binds | Antibody 122 (antibody, human IgG1, kappa, V domains shown) VH: EVQLVQSGAEVKKPGATVKISCKASGYTFSDYYLHWVRQAPEKGLEWMGWIDPENGDTEYAPKFQGRVTITADTSTDTGYLELSSLTSEDTAVYYCAANKELRYFDVWGQGTLVTVSS VL: DIQMTQSPSSVSASVGDRVTITCRASQSISINLHWYQQKPGKAPKLLIYFASQSISGVPSRFSGSGSGTDFSLTINSLQPEDFARYYCQQSNSFPLTFGGGTKVEIKR
binds | binds | Antibody 119 (antibody, human IgG1, kappa, V domains shown) VH: EVQLVQSGAEVKKPGATVKISCKASGYTFSDYYLHWVRQAPEKGLEWMGWIDPENGDTEYAPKFQGRVTITADTSTDTGYMELSSLRSEDTAVYYCAANKELRYFDVWGQGTLVTVSS VL: DIQMTQSPSSVSASVGDRVTITCRASQSISINLHWYQQKPGKAPKLLIYFASQSISGVPSRFSGSGSGTDFSLTINSLQPEDFARYYCQQSNSFPLTFGGGTKVEIKR
binds | binds | Antibody 118 (antibody, human IgG1, kappa, V domains shown) VH: EVQLVQSGAEVKKPGATVKISCKASGYTFSDYYLHWVRQAPEKGLEWMGWIDPENGDTEYAPKFQGRVTITADTSTDTAYLELSSLRSEDTAVYYCAANKELRYFDVWGQGTLVTVSS VL: DIQMTQSPSSVSASVGDRVTITCRASQSISINLHWYQQKPGKAPKLLIYFASQSISGVPSRFSGSGSGTDFSLTINSLQPEDFARYYCQQSNSFPLTFGGGTKVEIKR

Continued, binder first:

Binder | binding result (human IL-12) | binding result (human IL-23)
Antibody 114 (antibody, human IgG1, kappa, V domains shown) VH: EVQLVQSGAEVKKPGATVKISCKASGYTFSDYYLHWVRQAPEKGLEWMGWIDPENGDTEYAPKFQGRVTMTADTSTDTGYLELSSLRSEDTAVYYCAANKELRYFDVWGQGTLVTVSS VL: DIQMTQSPSSVSASVGDRVTITCRASQSISINLHWYQQKPGKAPKLLIYFASQSISGVPSRFSGSGSGTDFSLTINSLQPEDFARYYCQQSNSFPLTFGGGTKVEIKR | binds | binds
Antibody 117 (antibody, human IgG1, kappa, V domains shown) VH: EVQLVQSGAEVKKPGATVKISCKASGYTFSDYYLHWVRQAPEKGLEWMGWIDPENGDTEYAPKFQGRVTITADTSTNTGYLELSSLRSEDTAVYYCAANKELRYFDVWGQGTLVTVSS VL: DIQMTQSPSSVSASVGDRVTITCRASQSISINLHWYQQKPGKAPKLLIYFASQSISGVPSRFSGSGSGTDFSLTINSLQPEDFARYYCQQSNSFPLTFGGGTKVEIKR | binds | binds
Antibody 115 (antibody, human IgG1, kappa, V domains shown) VH: EVQLVQSGAEVKKPGATVKISCKASGYTFSDYYLHWVRQAPEKGLEWMGWIDPENGDTEYAPKFQGRVTITTDTSTDTGYLELSSLRSEDTAVYYCAANKELRYFDVWGQGTLVTVSS VL: DIQMTQSPSSVSASVGDRVTITCRASQSISINLHWYQQKPGKAPKLLIYFASQSISGVPSRFSGSGSGTDFSLTINSLQPEDFARYYCQQSNSFPLTFGGGTKVEIKR | binds | binds
Antibody 121 (antibody, human IgG1, kappa, V domains shown) VH: EVQLVQSGAEVKKPGATVKISCKASGYTFSDYYLHWVRQAPEKGLEWMGWIDPENGDTEYAPKFQGRVTITADTSTDTGYLELRSLRSEDTAVYYCAANKELRYFDVWGQGTLVTVSS VL: DIQMTQSPSSVSASVGDRVTITCRASQSISINLHWYQQKPGKAPKLLIYFASQSISGVPSRFSGSGSGTDFSLTINSLQPEDFARYYCQQSNSFPLTFGGGTKVEIKR | binds | binds
Antibody 113 (antibody, human IgG1, kappa, V domains shown) VH: EVQLVQSGAEVKKPGATVKISCKASGYTFSDYYLHWVRQAPEKGLEWMGWIDPENGDTEYAPKFQGRATITADTSTDTGYLELSSLRSEDTAVYYCAANKELRYFDVWGQGTLVTVSS VL: DIQMTQSPSSVSASVGDRVTITCRASQSISINLHWYQQKPGKAPKLLIYFASQSISGVPSRFSGSGSGTDFSLTINSLQPEDFARYYCQQSNSFPLTFGGGTKVEIKR | binds | binds
Antibody 120 (antibody, human IgG1, kappa, V domains shown) VH: EVQLVQSGAEVKKPGATVKISCKASGYTFSDYYLHWVRQAPEKGLEWMGWIDPENGDTEYAPKFQGRVTITADTSTDTGYLQLSSLRSEDTAVYYCAANKELRYFDVWGQGTLVTVSS VL: DIQMTQSPSSVSASVGDRVTITCRASQSISINLHWYQQKPGKAPKLLIYFASQSISGVPSRFSGSGSGTDFSLTINSLQPEDFARYYCQQSNSFPLTFGGGTKVEIKR | binds | binds
Antibody 123 (antibody, human IgG1, kappa, V domains shown) VH: EVQLVQSGAEVKKPGATVKISCKASGYTFSDYYLHWVRQAPEKGLEWMGWIDPENGDTEYAPKFQGRVTITADTSTDTGYLELSSLRSDDTAVYYCAANKELRYFDVWGQGTLVTVSS VL: DIQMTQSPSSVSASVGDRVTITCRASQSISINLHWYQQKPGKAPKLLIYFASQSISGVPSRFSGSGSGTDFSLTINSLQPEDFARYYCQQSNSFPLTFGGGTKVEIKR | binds | binds
Antibody 112 (antibody, human IgG1, kappa, V domains shown) VH: EVQLVQSGAEVKKPGATVKISCKASGYTFSDYYLHWVRQAPEKGLEWIGWIDPENGDTEYAPKFQGRVTITADTSTDTGYLELSSLRSEDTAVYYCAANKELRYFDVWGQGTLVTVSS VL: DIQMTQSPSSVSASVGDRVTITCRASQSISINLHWYQQKPGKAPKLLIYFASQSISGVPSRFSGSGSGTDFSLTINSLQPEDFARYYCQQSNSFPLTFGGGTKVEIKR | binds | binds
